Results as given in patent US20220153838A1.

Target: CD19 (UniProt P15391)
Test: cell-based or functional assay

Chain of FMC63-CD8BBZ CAR (Q07011 209-255): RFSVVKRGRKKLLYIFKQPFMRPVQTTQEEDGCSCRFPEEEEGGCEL
Chain of UniProt P15391 (P15391 20-556 limits assumed): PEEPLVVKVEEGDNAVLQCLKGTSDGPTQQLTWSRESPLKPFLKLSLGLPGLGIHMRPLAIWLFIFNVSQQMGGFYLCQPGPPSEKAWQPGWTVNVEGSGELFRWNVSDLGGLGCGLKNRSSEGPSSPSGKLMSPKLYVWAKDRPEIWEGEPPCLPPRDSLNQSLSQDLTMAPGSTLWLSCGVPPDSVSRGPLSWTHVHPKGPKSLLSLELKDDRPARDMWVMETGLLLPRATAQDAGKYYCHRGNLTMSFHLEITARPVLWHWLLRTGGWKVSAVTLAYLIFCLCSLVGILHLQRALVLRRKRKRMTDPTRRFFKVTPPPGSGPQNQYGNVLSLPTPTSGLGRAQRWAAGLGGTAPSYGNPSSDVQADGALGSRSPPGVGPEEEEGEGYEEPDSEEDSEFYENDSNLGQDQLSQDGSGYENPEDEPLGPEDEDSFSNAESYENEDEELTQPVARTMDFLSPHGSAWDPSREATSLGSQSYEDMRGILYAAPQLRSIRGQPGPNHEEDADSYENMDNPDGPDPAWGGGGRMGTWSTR

- IFNγ ELISA, CAR T-cells cultured overnight with CD19-K562 cells: 44300 pg/mL IFNγ
- IFNγ ELISA, CAR T-cells cultured overnight with primary CLL cells (CD19-Positive Targets): 13900 pg/mL IFNγ
Substance: FMC63-CD8BBZ CAR
